Measured values published in paper PMC10724200, “A peptide derived from interleukin-10 exhibits potential anticancer activity and can facilitate cell targeting of gold nanoparticles loaded with anticancer therapeutics” (Communications Chemistry, 2023).
Entries after “also recorded” stand apart in the source; their conditions may differ. Ends that are not written are not given here.

Legend:
[1] = tested on: BT-474 breast cancer cells; assay: Therapeutic efficacy: cell viability (CCK-8), BT-474 breast cancer cells; assay type: cell-based, human
Source text: 5-FU is a cytotoxic chemotherapeutic drug used in the treatment of a variety of cancers, including breast cancer. […] The gold nanoparticles fabricated in this study may be used as a delivery material to deliver 5-FU into cancer cells. Here, we loaded 5-FU onto NK20a/Poly A15@Au and Poly A15@Au nanoparticles.

[2] = parameters: method as in 2 sources, ref 40 = [40]; PMID 22211087; doi:10.7150/ijms.9.33; 40. Kadoyama K Adverse event profiles of 5-fluorouracil and capecitabine: data mining of the public version of the FDA adverse event reporting system, AERS, and reproducibility of clinical observation ||| ref 49 = [49]; 49. Casale, J. & Patel, P. Fluorouracil [Updated 2022 Nov 24]. In StatPearls. (StatPearls Publishing, Treasure Island (FL), 2023).; details: cited from earlier work
Source text: 5-FU is a cytotoxic chemotherapeutic drug used in the treatment of a variety of cancers, including breast cancer. […] The gold nanoparticles fabricated in this study may be used as a delivery material to deliver 5-FU into cancer cells. Here, we loaded 5-FU onto NK20a/Poly A15@Au and Poly A15@Au nanoparticles. […] It works by inhibiting the normal synthesis of thymidine by incorporating 5-FU metabolites into DNA and RNA, eventually leading to the arrest of synthetic pathways and subsequent apoptosis of treated cells[47],[48]. 5-FU is typically administered via intravenous injection. Infusions of 5-FU can be rapidly […] through the circulatory system, and prolonged administration of 5-FU is required to maintain a high level of 5-FU in the body, thereby enhancing clinical efficacy. However, its nonspecific toxicity, ...

[3] = biological target: T1, recombinant receptor human IL-10Ra protein (Homo sapiens, UniProt Q13651); assay: Biolayer interferometry kinetic assay, binding to IL-10Ra; details: for kon: read-out: ka (association constant)
T1 sequence (Q13651 22-578): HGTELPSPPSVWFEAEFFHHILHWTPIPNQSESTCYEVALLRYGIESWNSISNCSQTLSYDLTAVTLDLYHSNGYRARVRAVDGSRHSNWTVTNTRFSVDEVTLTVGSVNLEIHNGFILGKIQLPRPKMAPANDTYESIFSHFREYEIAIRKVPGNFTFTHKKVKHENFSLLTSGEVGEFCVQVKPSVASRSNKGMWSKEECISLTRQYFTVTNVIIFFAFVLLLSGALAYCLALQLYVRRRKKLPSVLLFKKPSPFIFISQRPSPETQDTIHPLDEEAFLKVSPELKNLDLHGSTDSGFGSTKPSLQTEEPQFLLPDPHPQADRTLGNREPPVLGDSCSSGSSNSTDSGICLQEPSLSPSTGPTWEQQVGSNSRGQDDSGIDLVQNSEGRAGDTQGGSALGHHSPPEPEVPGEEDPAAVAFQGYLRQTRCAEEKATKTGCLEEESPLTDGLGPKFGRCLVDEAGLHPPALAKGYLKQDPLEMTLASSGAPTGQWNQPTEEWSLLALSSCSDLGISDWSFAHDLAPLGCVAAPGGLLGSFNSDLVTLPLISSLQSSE
Procedure: Biolayer interferometry (BLI) was applied to analyze peptide–receptor protein interactions. BLI was performed with a ForteBio Octet RED96e System (Sartorius AG, Göttingen, Germany) by using high-precision streptavidin and biosensors. The biosensors were hydrated in a plate for 15 min and then loaded with 10 μg/mL recombinant receptor human IL-10Ra protein and incubated for 150 s. […] After the association step, the biosensor was shifted to the dissociation buffer, phosphate-buffered saline (PBS) with 0.05% Tween20, for dissociation. Dissociation was recorded until equilibrium was reached (120 s).
To measure the binding ability of the designed and negative control peptides (NM25, NK20, NK20a, and control scramble peptide CG20) to the receptor IL-10Ra in vitro, BLI experiments were performed. […] When binding with IL-10Ra, the association constant (ka) of NK20 and NK20a was 1.02 × 10^4 (1/Ms) and 8.14 × 10^3 (1/Ms), respectively. The ka values of the refined peptides were approximately 12-fold higher than that of NM25. […] The equilibrium dissociation constant (KD) of NK20a interactions with IL-1R1was approximately 2000 times greater than that with IL-10Ra, and the calculated dissociation constant of NK20a interactions with IL-1R1 was to be 5000 times greater than that with IL-10Ra interactions (Table 2). […] As a result, NK20a was used for further investigations in this study.
Fig. 3 BLI kinetic assays of the designed peptides binding to the receptor IL-10Ra. Wavelength shift curves show the association and dissociation of the designed peptides (a) NM25, (b) NK20, (c) NK20a, (d) CG20 binding to the IL-10 receptor, and (e) NK20a binding to a control receptor IL-1R1 at various concentrations. Dissociation was recorded at 120 s after the binding started (black dotted line).

BJAB B-lymphoma cells = assay: Cell viability assay (CCK-8), B-lymphoma cells; assay type: cell-based; details: 50 μg/mL NK20a and/or 10 ng/mL IL-10, 48 h, triplicate
Procedure: BJAB B-lymphoma cell lines were cultured in RPMI 1640 medium supplemented with 10% fetal bovine serum. RAW 264.7 macrophage and BT-474 human breast tumor cell lines were cultured in Dulbecco’s Modified Eagle Medium (DMEM) supplemented with 10% fetal bovine serum, 1% L-glutamine, 100 U/ml penicillin, 100 U/ml streptomycin, and sodium pyruvate. The cells were incubated at 37 °C in a 5% CO2 atmosphere.
For the cell viability assay, B-lymphoma cells were cultured in 96-well plates at a density of 3 × 10^3 cells/well for 24 h. The cells were then treated with 10 ng/mL IL-10 and 50 μg/mL NK20a, and further incubated for 48 h. After incubation, 10 μL of Cell Counting Kit-8 (CCK-8; Enzo Life Sciences, NY, USA) reagent was added, and the cells were incubated at 37 °C for 1 h. Cell viability was quantified by measuring the absorbance at 450 nm by using an ELISA plate reader (CLARIOstar Plus, BMG Labtech, Ortenberg, Germany).
Fig. 4 In vitro binding assay and cytotoxicity study. a B-lymphoma cells were treated with NK20a, and the fluorescence of the treated cells was analyzed through flow cytometry to determine the binding ability of NK20a to the cell surface. The fluorescence distribution of FITC was categorized as treated with NK20a (green) and untreated (red). b Bar chart showing the cell viability of the B-lymphoma cell line treated with 10 ng/mL IL-10, 50 μg/mL NK20a, and both, respectively. […]

RAW 264.7 macrophages = assay: Atomic force microscopy of macrophage morphology / activation; assay type: cell-based; details: RAW 264.7, AFM; LPS 10 ng/mL, IL-10 10 ng/mL, NK20a 50 μg/mL pretreatment 30 min with LPS; fixed after 24 h
Procedure: Cell morphology was evaluated through atomic force microscopy (AFM) to observe the effects of the peptide on the cells. For AFM experiments, RAW 264.7 macrophages (5 × 10^4 cells/mL) were seeded on coverslips that had been treated with HCl to facilitate cell attachment. The cells were treated with lipopolysaccharides (LPS), NK20a, or IL-10 and incubated at 37 °C. After 24 h of incubation, the medium was removed, and the cells were washed twice with PBS. The cells were then fixed with 4% glutaraldehyde for 40 min. Finally, the fixation solution was removed, the samples were gently washed three times with Milli Q water, and then the samples were dried in a desiccator for 3 h. Cell morphology was imaged using an AFM instrument (Nanowizard, JPK BioAFM, Bruker Nano GmbH, Berlin, Germany). […] The AFM probes used were oxide-sharpened silicon nitride (Si3N4) probes (OMCL-TR400PB-1, Olympus, Tokyo, Japan) with a spring constant of 0.02 N/m. The SPM image processing software package version 3.1.6 (JPK BioAFM, Bruker Nano GmbH, Berlin, Germany) was used for processing and analysis of AFM image data.
Macrophages play a key role in tumor cell clearance. […] In this study, we examined the ability of NK20a to inhibit the anti-inflammatory effects of IL-10 on macrophages. The RAW 264.7 macrophage cell line was used in the evaluation, and the activation of macrophage cells was visualized through AFM. […]

[4] = biological target: T2, recombinant receptor human IL-10Ra protein (human, UniProt Q13651 22-235); assay: BLI; steady-state analysis
T2 chain: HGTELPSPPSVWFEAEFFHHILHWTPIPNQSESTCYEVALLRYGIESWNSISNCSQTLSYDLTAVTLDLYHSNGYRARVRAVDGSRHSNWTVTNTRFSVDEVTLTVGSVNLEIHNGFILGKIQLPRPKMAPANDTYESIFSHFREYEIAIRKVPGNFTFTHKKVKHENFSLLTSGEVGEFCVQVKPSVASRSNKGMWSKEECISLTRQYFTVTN

[5] = biological target: T3, recombinant receptor human IL-10Ra protein (human, UniProt Q13651 22-235); assay: BLI; ForteBio Octet RED96e, streptavidin biosensors loaded with 10 μg/mL recombinant human IL-10Ra (150 s); peptides at 3.12-100.0 μM, association 120 s; dissociation 120 s in PBS with 0.05% Tween20; details: both partners purified
T3 construct: Interleukin-10 receptor subunit alpha, human, recombinant; also called IL-10 receptor
T3 sequence (looked up): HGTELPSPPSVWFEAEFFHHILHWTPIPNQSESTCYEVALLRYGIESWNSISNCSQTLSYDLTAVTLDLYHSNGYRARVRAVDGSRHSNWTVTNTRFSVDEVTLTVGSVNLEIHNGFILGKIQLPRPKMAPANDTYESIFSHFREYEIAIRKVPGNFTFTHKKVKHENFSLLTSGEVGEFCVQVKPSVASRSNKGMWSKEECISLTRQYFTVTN

receptor IL-1R1 = receptor IL-1R1 (UniProt P14778 18-569, Source and limits not given; taken as the recombinant extracellular domain (UniProt topological domain 18-336) by convention. Human inferred from the human IL-10Ra used in the same BLI assay. Likely); assay: BLI; control receptor IL-1R1 in place of IL-10Ra; NK20a at various concentrations; details: both partners purified
[6] = BLI kinetic, human IL-10Ra, peptides 3.12-100.0 μM, association 120 s

Chain of receptor IL-1R1 (P14778 18-569): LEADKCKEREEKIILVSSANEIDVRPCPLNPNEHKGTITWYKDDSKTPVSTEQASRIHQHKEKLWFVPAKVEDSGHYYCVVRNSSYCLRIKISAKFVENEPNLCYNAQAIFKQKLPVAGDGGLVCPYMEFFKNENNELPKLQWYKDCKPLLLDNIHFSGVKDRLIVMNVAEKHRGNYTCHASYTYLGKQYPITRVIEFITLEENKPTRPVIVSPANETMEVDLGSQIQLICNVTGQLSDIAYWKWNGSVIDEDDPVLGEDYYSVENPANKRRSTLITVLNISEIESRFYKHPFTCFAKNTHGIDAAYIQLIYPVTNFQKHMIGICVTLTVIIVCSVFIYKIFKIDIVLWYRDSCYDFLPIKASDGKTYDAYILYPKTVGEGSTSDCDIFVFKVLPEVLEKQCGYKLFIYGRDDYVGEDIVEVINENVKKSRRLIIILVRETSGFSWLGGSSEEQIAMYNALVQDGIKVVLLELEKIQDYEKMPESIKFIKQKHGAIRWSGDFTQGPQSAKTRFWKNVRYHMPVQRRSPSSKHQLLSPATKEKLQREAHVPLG

For O=c1[nH]cc(F)c(=O)[nH]1 [5-FU, 5-fluorouracil], the survival rate ([1]; BT-474, free 5-FU at 80 μM, 72 h, CCK-8) is given as “more than 70%”, the “cell survival / therapeutic effect on BT-474 (in words)” value ([1]; CCK-8, 72 h, 5-FU free up to 80 μM) is given as “did not exhibit a significant therapeutic effect against the breast cancer cells” and the “membrane permeability (in words)” value [2] is given as “poor membrane permeability”. For the same molecule, the “membrane permeability / half-life in plasma (in words)” value [2] was “poor membrane permeability, and short half-life in plasma”.

For “CPLNGSTVYGHLRHCLSCSG [CG20, random, control scramble peptide, reference compound]”, the “binding to IL-10Ra (in words)” value ([3]; BLI) was “not able to bind to IL-10Ra”.

With “IL-10: immune regulatory cytokine with strong anti-inflammatory activity” the “kd (dissociation constant)” value ([3]; BLI kinetic, human IL-10Ra, dissociation 120 s in PBS with 0.05% Tween20) was less than 1e-07 s⁻¹, the “ka (association constant)” value [3, 6] was 224000 M⁻¹ s⁻¹ and the “cell proliferation / viability (in words)” value (BJAB B-lymphoma cells) was “did not significantly promote the proliferation of lymphoma B cells”. The “macrophage activation, morphology (in words)” value (RAW 264.7 macrophages) was “the activation of macrophages was suppressed; also recorded: inhibited the inflammation of LPS-stimulated cells”.

In the case of NMLRDLRDAFSRVKTFFQMK [NK20], the kon [3, 6] is reported as 10200 M⁻¹ s⁻¹.

NMLRDLRDAFSRVKTFFQMKDQLDN [NM25] gave a kon [3, 6] of 832 M⁻¹ s⁻¹.

B1: NK20 peptide (peptide)
peptide: NMLRDLRDAFSRVKTFFQMK
notes: truncation of NM25 (five C-terminal residues removed); stretch of human IL-10; source: synthetic peptide (GeneMark, GMbiolab Co., solid-phase)
With B1 the Kd [4] was 0.26 µM, the Kd [5] was 21.4 µM and the koff [5] was 0.218 s⁻¹.

B2: NK20a peptide (peptide)
peptide: NMLRNLRNAFSRVKTFFQMK
notes: NK20 with two Asp replaced by Asn; stretch of human IL-10; source: synthetic peptide (GeneMark, GMbiolab Co., solid-phase)
Molecule B2 has a Kd [4] of 0.15 µM, a Kd (receptor IL-1R1) of 28000 µM and a koff (receptor IL-1R1) of 512 s⁻¹. For the same molecule, the Kd [5] was 11.2 µM and the koff [5] was 0.0909 s⁻¹.

B3: NM25 peptide (peptide)
peptide: NMLRDLRDAFSRVKTFFQMKDQLDN
notes: human IL-10; also called original peptide; source: synthetic peptide (GeneMark, GMbiolab Co., solid-phase)
In the case of B3, the Kd [4] is reported as 0.55 µM, the Kd [5] is reported as 41 µM and the koff [5] is reported as 0.0341 s⁻¹.

B4: Human interleukin-10 (IL-10) (ligand, UniProt P22301 19-178, looked up)
chain: SPGQGTQSENSCTHFPGNLPNMLRDLRDAFSRVKTFFQMKDQLDNLLLKESLLEDFKGYLGCQALSEMIQFYLEEVMPQAENQDPDIKAHVNSLGENLKTLRLRLRRCHRFLPCENKSKAVEQVKNAFNKLQEKGIYKAMSEFDIFINYIEAYMTMKIRN
notes: Interleukin-10, human; the methods of the BLI describe only the peptides as analytes; also called IL-10 cytokine
Molecule B4 has a Kd [4] of 1 µM, a Kd [5] of less than 1e-06 µM and a koff [5] of less than 1e-07 s⁻¹. For the same molecule, the kon [5] was 224000 M⁻¹ s⁻¹.
